Patent US20220403028A1 (NUMAB THERAPEUTICS, published 2022)
Positions count from the first letter of the chain named.

B1: 28-21-D09-sc18 (scFv)
scFv: DIQMTQSPSSLSASVGDRVTITCQSSQSVFSNNYLAWYQQKPGQSPKRLIYSASTLASGVPSRFSGSGSGTHFTLTISSLQPEDFATYYCLGSYACSSADCYVFGTGTKVTVLGGGGGSGGGGSGGGGSGGGGSEVQLVESGGGLVQPGGSLRLSCAASGFSLSSYDMSWVRQAPGKGLEWIGASYASGPTYYASWAKGRFTISRDNSKNTVYLQMNSLRAEDTAVYYCARGGWTGTSHSNIWGQGTLVTVSS
B2: 28-21-D09-sc16 (scFv)
scFv: B1 scFv with H72D, V226T, Y228F
B3: 28-21-D09-sc19 (scFv)
scFv: B1 scFv with H72D
B4: 28-21-D09-sc04 (scFv)
scFv: B1 scFv with Y38F, H72D, E180A, V226T, Y228F
B5: 28-21-D09-sc15 (scFv)
scFv: B1 scFv with V226T, Y228F
B6: PRO389 (IL23R×CD3 1st gen Numab) (bispecific antibody)
chain: DIQMTQSPSSLSASVGDRVTITCQASENIYSFLAWYQQKPGKAPKLLIYSASKLAAGVPSRFSGSGSGTDFTLTISSLQPEDFATYYCQQTNRYSNPDIYNVFGTGTKVTVLGGGGGSEVQLVESGGGLVQPGGSLRLSCAASGFPLSSYAMIWVRQAPGKGLEWIGMILRAGNIYYASWVKGRFTISRDNSKNTVYLQMNSLRAEDTAVYYCARRHYNREGYPIGIGDLWGQGTLVTVSSGGGGSGGGGSGGGGSGGGGSDIQMTQSPSSLSASVGDRVTITCQSSESVYNNKRLSWYQQKPGKAPKLLIYTASSLASGVPSRFSGSGSGTDFTLTISSLQPEDFATYYCQGEFTCSNADCFTFGTGTKVTVLGGGGGSEVQLVESGGGLVQPGGSLRLSCAASGIDFNSNYYMCWVRQAPGKGLEWIGCIYVGSHVNTYYANWAKGRFTISRDNSKNTVYLQMNSLRAEDTAVYYCATSGSSVLYFKFWGQGTLVTVSS

Experiments:
[1] = target: cynomolgus CD3ε (recombinant, coupled to the SPR chip) (cynomolgus (Macaca fascicularis)) (UniProt Q95LI5); assay: SPR (Biacore T200), CD3ε amine-coupled to CM5 chip, scFv as analyte, 1:1 Langmuir fit
[2] = target: human CD3ε on T cells (human, UniProt P07766 23-207); assay: cell-based or functional assay
human CD3ε on T cells, sequence (P07766 23-207 limits assumed): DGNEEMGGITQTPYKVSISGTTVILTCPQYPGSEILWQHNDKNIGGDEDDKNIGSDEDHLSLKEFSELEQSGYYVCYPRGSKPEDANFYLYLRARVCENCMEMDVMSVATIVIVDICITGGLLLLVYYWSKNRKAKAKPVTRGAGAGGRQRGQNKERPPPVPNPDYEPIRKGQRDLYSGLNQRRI

Row | Binder | Kd [1] [nM] | EC50 of specific target cell lysis (IL-23R-expressing CHO-K1 target cells, human PBMCs, flow cytometry cytotoxicity assay) [2] [pM]
1 | B1 | 14.2 | –
2 | B2 | 16.6 | –
3 | B3 | 19.5 | –
4 | B4 | 4.78 | –
5 | B5 | 13.7 | –
6 | B6 | – | 5.3
